Numbering of substitutions follows the chain as printed. Names may count otherwise.
Legend:
[1] = substrate: O=C1C=CCC1; test: initial velocity of MBH adduct formation by HPLC, Michaelis-Menten fit; assay type: biochemical, Geobacillus kaustophilus; details: 4 mM 4-nitrobenzaldehyde, PBS pH 10.0, 3% methanol, 25 °C
Source text: (§1) initial velocity of MBH adduct formation by HPLC, Michaelis-Menten fit on GkOYE

[2] = substrate: O=Cc1ccc([N+](=O)[O-])cc1; test: as above; assay type: biochemical, Geobacillus kaustophilus; details: 5 mM 2-cyclopenten-1-one, PBS pH 10.0, 3% methanol, 25 °C
Source text: as §1

[3] = target: the molecule itself; test: crystal structure; apo-GkOYE.8 at 15 mg/mL, hanging drop, 0.1 M glycine pH 9.0, 25% (w/v) polyethylene glycol 2000, 15% (w/v) glycerol, 20 °C; 3.11 Å
[4] = GkOYE.8, MBH reaction, no FMN, covalent intermediate at C26

B1: GkOYE.8 (GkOYE^Q102A/Y169F/R215A/R308A) (enzyme, Geobacillus kaustophilus)
chain: MNTMLFSPYTIRGLTLKNRIVMSPMCMYSCDTKDGAVRTWHKIHYPARAVGQVGLIIVEATGVTPQGRISERDLGIWSDDHIAGLRELVGLVKEHGAAIGIALAHAGRKSQVPGEIIAPSAVPFDDSSPTPKEMTKADIEETVQAFQNGARRAKEAGFDVIEIHAAHGFLINEFLSPLSNRRQDEYGGSPENRYRFLGEVIDAVREVWDGPLFVAISASDYHPDGLTAKDYVPYAKRMKEQGVDLVDVSSGAIVPARMNVYPGYQVPFAELIRREADIPTGAVGLITSGWQAEEILQNGRADLVFLGAELLRNPYWPYAAARELGAKISAPVQYERGWRF
notes: FMN-free (apo); Expressed from the plasmid pET28a-GkOYE.8; also called apo-GkOYE.8; source: E. coli BL21(DE3), purified (Strep-Tactin column; HisTrap HP column for crystallization)
Km [1, 4]: 4.28 mM | kcat [1, 4]: 0.000178 s⁻¹ | kcat/Km [1, 4]: 0.0417 M⁻¹ s⁻¹ | Km ([2]; GkOYE.8, MBH reaction, no FMN): 15.98 mM | kcat ([2]; GkOYE.8, MBH reaction, no FMN): 0.000458 s⁻¹ | kcat/Km ([2]; GkOYE.8, MBH reaction, no FMN): 0.0278 M⁻¹ s⁻¹ | stoichiometry N [3]: 2

B2: GkOYE (Geobacillus kaustophilus HTA426; D247I/G62W/H167A/Q102A/R215A/R308A/Y169F) (protein)
chain: B1 chain with G62W, H167A, D247I
notes: recombinant, Strep-tagged, pET28a, E. coli BL21(DE3); Strep-Tactin purified; dimer in crystal
Km ([1]; GkOYE.11, MBH reaction): 1.70 mM | kcat ([1]; GkOYE.11, MBH reaction): 0.00019 s⁻¹ | kcat/Km ([1]; GkOYE.11, MBH reaction): 0.114 M⁻¹ s⁻¹ | Km ([2]; GkOYE.11, MBH reaction): 11.22 mM | kcat ([2]; GkOYE.11, MBH reaction): 0.000478 s⁻¹ | kcat/Km ([2]; GkOYE.11, MBH reaction): 0.0417 M⁻¹ s⁻¹

B3: GkOYE (Geobacillus kaustophilus HTA426; G62N/Q102A/R215A/R308A/Y169W) (protein)
chain: B1 chain with G62N, F169W
notes: as for B2
Km ([1]; GkOYE.13, MBH reaction): 1.91 mM | kcat ([1]; GkOYE.13, MBH reaction): 0.000189 s⁻¹ | kcat/Km ([1]; GkOYE.13, MBH reaction): 0.1 M⁻¹ s⁻¹ | Km ([2]; GkOYE.13, MBH reaction): 12.10 mM | kcat ([2]; GkOYE.13, MBH reaction): 0.000461 s⁻¹ | kcat/Km ([2]; GkOYE.13, MBH reaction): 0.0389 M⁻¹ s⁻¹

B4: GkOYE (Geobacillus kaustophilus HTA426; Q102A/R215A/R308A/Y169W) (protein)
chain: B1 chain with F169W
notes: as for B2
Km ([1]; GkOYE.12, MBH reaction): 4.50 mM | kcat ([1]; GkOYE.12, MBH reaction): 0.000167 s⁻¹ | kcat/Km ([1]; GkOYE.12, MBH reaction): 0.0361 M⁻¹ s⁻¹ | Km ([2]; GkOYE.12, MBH reaction): 17.28 mM | kcat ([2]; GkOYE.12, MBH reaction): 0.000422 s⁻¹ | kcat/Km ([2]; GkOYE.12, MBH reaction): 0.025 M⁻¹ s⁻¹

B5: GkOYE (Geobacillus kaustophilus HTA426; G62W/Q102A/R215A/R308A/Y169F) (protein)
chain: B1 chain with G62W
notes: as for B2
Km ([1]; GkOYE.9, MBH reaction): 2.00 mM | kcat ([1]; GkOYE.9, MBH reaction): 0.000181 s⁻¹ | kcat/Km ([1]; GkOYE.9, MBH reaction): 0.0917 M⁻¹ s⁻¹ | Km ([2]; GkOYE.9, MBH reaction): 12.44 mM | kcat ([2]; GkOYE.9, MBH reaction): 0.000442 s⁻¹ | kcat/Km ([2]; GkOYE.9, MBH reaction): 0.0361 M⁻¹ s⁻¹

— article PMC11233575, “Unlocking the function promiscuity of old yellow enzyme to catalyze asymmetric Morita-Baylis-Hillman reaction” (Nature Communications, 2024)
